This test concerns the target NT-mini (catalytically competent fragment of human neurotrypsin, Gly497-Leu875) (human).

Ends that are not written are not given here. * marks the point of attachment. pNA = O=[N+]([O-])c1ccc(N*)cc1

GLVEK-pNA (also: termed β-peptide, meaning not given here) [β-(5 mer) peptide with a C-terminal p-nitroaniline]: the Km of cleavage of the pNa peptide by NT-mini (Michaelis-Menten; 1 µM enzyme, 37 °C, 5 mM CaCl2, GF buffer pH 8) turned out to be 17.2 mM.

For KGLVEK-pNA (also: termed β-peptide, meaning not given here) [β-peptide (6-mer, KGLVEK) with a C-terminal p-nitroaniline], the Km of cleavage of the pNa peptide by NT-mini (Michaelis-Menten; 1 µM enzyme, 37 °C, 5 mM CaCl2, GF buffer pH 8) was 6.16 mM.

These data come from PMC9616769.
